In patent US20240409618A1:

Biological target: SARS-CoV-2 spike protein (isolate USA-WA1/2020) on pseudotyped virus (SARS-CoV-2 (USA-WA1/2020)) (UniProt P0DTC2)
Test: cell-based or functional assay

## DMAb 2130_FcTM (antibody)
  serum potency (IC50), neutralization of WA1/2020 pseudovirus: 1 to 2 ng/mL
